Experimental data from the supplement of paper PMC10567573.

B1: FBXO34 (parent)
chain: PRYREDPCKQCKKKYVKGDVSLCR

Variants of: B1
Assay: protein stability index of a GFP-peptide fusion (GPS, HEK-293T) (PSI 1-6); higher = more stable
Details: c terminus: a fixed tail appended
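Note: lentivirally expressed fusions sorted by FACS into six bins by GFP to DsRed ratio, PSI derived from sequencing read proportions per bin multiplied by bin number.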

Variant | protein stability index
PRYREDPCKSCKKKYVKGDVSLCR [Q10S] | 3.13
PRYREDPCKKCKKKYVKGDVSLCR [Q10K] | 2.81
PRYREDPCKACKKKYVKGDVSLCR [Q10A] | 2.79
PRYREDPCKTCKKKYVKGDVSLCR [Q10T] | 2.78
PRYREDPCKICKKKYVKGDVSLCR [Q10I] | 2.13
PRYREDPCKMCKKKYVKGDVSLCR [Q10M] | 2.09
PRYREDPCKDCKKKYVKGDVSLCR [Q10D] | 2.83
PRYREDPCKPCKKKYVKGDVSLCR [Q10P] | 3.13
PRYREDPCKRCKKKYVKGDVSLCR [Q10R] | 2.75
PRYREDPCKVCKKKYVKGDVSLCR [Q10V] | 3.28
PRYREDPCKLCKKKYVKGDVSLCR [Q10L] | 2.04
PRYREDPCKFCKKKYVKGDVSLCR [Q10F] | 1.77
PRYREDPCKYCKKKYVKGDVSLCR [Q10Y] | 2.72
PRYREDPCKGCKKKYVKGDVSLCR [Q10G] | 3.31
PRYREDPCKCCKKKYVKGDVSLCR [Q10C] | 2.13
PRYREDPCKECKKKYVKGDVSLCR [Q10E] | 2.87
PRYREDPCKHCKKKYVKGDVSLCR [Q10H] | 2.39
PRYREDPCKNCKKKYVKGDVSLCR [Q10N] | 2.64
PRYREDPCKWCKKKYVKGDVSLCR [Q10W] | 2.69
PRYREDPCKQCKKHYVKGDVSLCR [K14H] | 2.29
PRYREDPCKQCKKIYVKGDVSLCR [K14I] | 2.19
PRYREDPCKQCKKCYVKGDVSLCR [K14C] | 1.84
PRYREDPCKQCKKPYVKGDVSLCR [K14P] | 2.85
PRYREDPCKQCKKYYVKGDVSLCR [K14Y] | 2.12

Variant | protein stability index
PRYREDPCKQCKKSYVKGDVSLCR [K14S] | 2.45
PRYREDPCKQCKKNYVKGDVSLCR [K14N] | 2.54
PRYREDPCKQCKKWYVKGDVSLCR [K14W] | 2.22
PRYREDPCKQCKKQYVKGDVSLCR [K14Q] | 2.59
PRYREDPCKQCKKEYVKGDVSLCR [K14E] | 2.69
PRYREDPCKQCKKTYVKGDVSLCR [K14T] | 2.92
PRYREDPCKQCKKGYVKGDVSLCR [K14G] | 2.48
PRYREDPCKQCKKDYVKGDVSLCR [K14D] | 2.24
PRYREDPCKQCKKVYVKGDVSLCR [K14V] | 2.2
PRYREDPCKQCKKRYVKGDVSLCR [K14R] | 2.88
PRYREDPCKQCKKMYVKGDVSLCR [K14M] | 2.31
PRYREDPCKQCKKLYVKGDVSLCR [K14L] | 2
PRYREDPCKQCKKAYVKGDVSLCR [K14A] | 2.17
PRYREDPCKQCKKFYVKGDVSLCR [K14F] | 2.5
PRYREDPCKQMKKKYVKGDVSLCR [C11M] | 3.01
PRYREDPCKQRKKKYVKGDVSLCR [C11R] | 3.77
PRYREDPCKQDKKKYVKGDVSLCR [C11D] | 4.4
PRYREDPCKQAKKKYVKGDVSLCR [C11A] | 3.23
PRYREDPCKQHKKKYVKGDVSLCR [C11H] | 3.68
PRYREDPCKQPKKKYVKGDVSLCR [C11P] | 3.99
PRYREDPCKQEKKKYVKGDVSLCR [C11E] | 3.91
PRYREDPCKQVKKKYVKGDVSLCR [C11V] | 3.11
PRYREDPCKQNKKKYVKGDVSLCR [C11N] | 4.14
PRYREDPCKQYKKKYVKGDVSLCR [C11Y] | 2.76

Variant | protein stability index
PRYREDPCKQGKKKYVKGDVSLCR [C11G] | 3.91
PRYREDPCKQKKKKYVKGDVSLCR [C11K] | 4.09
PRYREDPCKQSKKKYVKGDVSLCR [C11S] | 4.07
PRYREDPCKQFKKKYVKGDVSLCR [C11F] | 2.12
PRYREDPCKQIKKKYVKGDVSLCR [C11I] | 3.01
PRYREDPCKQLKKKYVKGDVSLCR [C11L] | 3.31
PRYREDPCKQQKKKYVKGDVSLCR [C11Q] | 3.75
PRYREDPCKQWKKKYVKGDVSLCR [C11W] | 2.12
PRYREDPCKQTKKKYVKGDVSLCR [C11T] | 3.57
PRYREVPCKQCKKKYVKGDVSLCR [D6V] | 2.58
PRYREYPCKQCKKKYVKGDVSLCR [D6Y] | 2.3
PRYREWPCKQCKKKYVKGDVSLCR [D6W] | 1.98
PRYREDPCKQCKKKGVKGDVSLCR [Y15G] | 3.47
PRYREDPCKQCKKKSVKGDVSLCR [Y15S] | 3.07
PRYREDPCKQCKKKDVKGDVSLCR [Y15D] | 3.06
PRYREDPCKQCKKKWVKGDVSLCR [Y15W] | 2.79
PRYREDPCKQCKKKPVKGDVSLCR [Y15P] | 2.98
PRYREDPCKQCKKKEVKGDVSLCR [Y15E] | 3.12
PRYREDPCKQCKKKKVKGDVSLCR [Y15K] | 3.49
PRYREDPCKQCKKKHVKGDVSLCR [Y15H] | 4.01
PRYREDPCKQCKKKAVKGDVSLCR [Y15A] | 2.8
PRYREDPCKQCKKKFVKGDVSLCR [Y15F] | 2.73
PRYREDPCKQCKKKNVKGDVSLCR [Y15N] | 2.99
PRYREDPCKQCKKKLVKGDVSLCR [Y15L] | 3.1

Variant | protein stability index
PRYREDPCKQCKKKVVKGDVSLCR [Y15V] | 2.94
PRYREDPCKQCKKKQVKGDVSLCR [Y15Q] | 2.9
PRYREDPCKQCKKKMVKGDVSLCR [Y15M] | 3.11
PRYREDPCKQCKKKRVKGDVSLCR [Y15R] | 3.31
PRYREDPCKQCKKKIVKGDVSLCR [Y15I] | 2.95
PRYREDPCKQCKKKCVKGDVSLCR [Y15C] | 2.73
PRYREDPCKQCKKKTVKGDVSLCR [Y15T] | 3.13
PRYREDPCKQCKKKYCKGDVSLCR [V16C] | 3.63
PRYREDPCKQCKKKYQKGDVSLCR [V16Q] | 2.63
PRYREDPCKQCKKKYEKGDVSLCR [V16E] | 2.81
PRYREDPCKQCKKKYNKGDVSLCR [V16N] | 2.52
PRYREDPCKQCKKKYHKGDVSLCR [V16H] | 2.77
PRYREDPCKQCKKKYGKGDVSLCR [V16G] | 2.55
PRYREDPCKQCKKKYIKGDVSLCR [V16I] | 2.5
PRYREDPCKQCKKKYFKGDVSLCR [V16F] | 2.22
PRYREDPCKQCKKKYKKGDVSLCR [V16K] | 2.75
PRYREDPCKQCKKKYMKGDVSLCR [V16M] | 2.19
PRYREDPCKQCKKKYPKGDVSLCR [V16P] | 3.48
PRYREDPCKQCKKKYDKGDVSLCR [V16D] | 2.73
PRYREDPCKQCKKKYAKGDVSLCR [V16A] | 3.11
PRYREDPCKQCKKKYLKGDVSLCR [V16L] | 2.98
PRYREDPAKQCKKKYVKGDVSLCR [C8A] | 4.08
